{"source": "patent US20230111363A1", "about": "(LMMUNOMETABOLISM DEVELOPMENT, published 2023)", "binders": {"B1": {"name": "INX444 IgG1EN (antibody)", "heavy": "QVQLKESGPGLVKPSQTLSLTCTVSGFSLTNYHLQWVRQPPGKGLEWIGFIRSSGNTEYNPSLKSRVTISRDTSKNQVSLKLSSVTAADTAVYYCARKRWVHGTWYSPGYYVMDAWGQGTLVTVSSASTKGPSVFPLAPSSKSTSGGTAALGCLVKDYFPEPVTVSWNSGALTSGVHTFPAVLQSSGLYSLSSVVTVPSSSLGTQTYICNVNHKPSNTKVDKRVEPKSCDKTHTCPPCPAPEAEGAPSVFLFPPKPKDTLMISRTPEVTCVVVDVSHEDPEVKFNWYVDGVEVHNAKTKPREEQYNSTYRVVSVLTVLHQDWLNGKEYKCKVSNKALPSSIEKTISKAKGQPREPQVYTLPPSREEMTKNQVSLTCLVKGFYPSDIAVEWESNGQPENNYKTTPPVLDSDGSFFLYSKLTVDKSRWQQGNVFSCSVMHEALHNHYTQKSLSLSPGK", "light": "DIQLTQSPSAMSASVGDRVTITCRASQGISNYLAWYQQKPGKAPKLLIYAASTLQSGVASRFSGRGSGTDFTLTISSLQPEDFATYYCQQSDILPYTFGQGTKVEIKRTVAAPSVFIFPPSDEQLKSGTASVVCLLNNFYPREAKVQWKVDNALQSGNSQESVTEQDSKDSTYSLSSTLTLSKADYEKHKVYACEVTHQGLSSPVTKSFNRGEC", "notes": "INX444 of WO19136300 converted to the IgG1EN backbone (L234A, L235E, G237A, A330S, P331S, EU numbering)"}, "B2": {"name": "anti-human MCT1 antibody Ab6 (antibody, human IgG1, kappa)", "heavy": "QVQLVQSGAEVKKPGASVKVSCTVSGRSLTNYHLQWVRQAPGQGLEWMGFIRSSGNTEYNSRFKSRVTMTRDTSTSTVYMELSSLRSEDTAVYYCARNRWYHGTYYSPGYYVMDAWGQGTLVTVSSASTKGPSVFPLAPSSKSTSGGTAALGCLVKDYFPEPVTVSWNSGALTSGVHTFPAVLQSSGLYSLSSVVTVPSSSLGTQTYICNVNHKPSNTKVDKRVEPKSCDKTHTCPPCPAPEAEGAPSVFLFPPKPKDTLMISRTPEVTCVVVDVSHEDPEVKFNWYVDGVEVHNAKTKPREEQYNSTYRVVSVLTVLHQDWLNGKEYKCKVSNKALPSSIEKTISKAKGQPREPQVYTLPPSREEMTKNQVSLTCLVKGFYPSDIAVEWESNGQPENNYKTTPPVLDSDGSFFLYSKLTVDKSRWQQGNVFSCSVMHEALHNHYTQKSLSLSPGK", "light": "EIVLTQSPGTLSLSPGERATLSCKGSQNIENYLAWYQQKPGQAPRLLIYNRHNLQTGIPDRFSGSGSGTDFTLTISRLEPEDFAVYYCYQYSDGYTFGGGTKVEIKRTVAAPSVFIFPPSDEQLKSGTASVVCLLNNFYPREAKVQWKVDNALQSGNSQESVTEQDSKDSTYSLSSTLTLSKADYEKHKVYACEVTHQGLSSPVTKSFNRGEC", "notes": "IgG1EN backbone"}}, "key": {"[1]": {"biological_target": "T1, human FcγRI (CD64) extracellular domain (human, UniProt P12314 16-292)", "T1 construct": "extracellular domain; also called FcγRI ECD", "T1 sequence (P12314 16-292)": "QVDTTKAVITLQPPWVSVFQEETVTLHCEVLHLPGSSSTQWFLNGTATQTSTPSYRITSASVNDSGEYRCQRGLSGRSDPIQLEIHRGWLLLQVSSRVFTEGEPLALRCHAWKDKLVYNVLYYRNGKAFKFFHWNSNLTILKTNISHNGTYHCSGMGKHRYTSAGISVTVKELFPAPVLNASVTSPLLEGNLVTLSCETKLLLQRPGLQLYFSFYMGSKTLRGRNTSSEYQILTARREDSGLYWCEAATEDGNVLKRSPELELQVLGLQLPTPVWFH", "assay": "SPR (Biacore T100), antibody captured on Protein A, FcγR ECD as analyte, 25 C", "experimental": "Unreacted sites were blocked with a 7 minute injection of ethanolamine at 10 μL/minute. […] FC1 was the reference FC, therefore no antibody was captured in FC1. […] Regeneration was performed by injecting 15 μL of 10 mM glycine, pH 1.5, at 30 μL/minute over all FCs. […] The affinity (KD) was calculated using either steady state equilibrium analysis with the Scrubber 2 Biacore Evaluation Software or a “1:1 (Langmuir) binding” model in BIA Evaluation. […] Duplicate injections of each concentration were injected over all FCs at 40 μL/minute for 60 seconds followed by a 120 second dissociation phase. […] The affinity (KD) was calculated using the steady state equilibrium analysis with the Scrubber 2 Biacore Evaluation Software."}, "[2]": {"biological_target": "T2, human monocarboxylate transporter 1 (MCT1) (human, UniProt P53985 1-500)", "T2 sequence": "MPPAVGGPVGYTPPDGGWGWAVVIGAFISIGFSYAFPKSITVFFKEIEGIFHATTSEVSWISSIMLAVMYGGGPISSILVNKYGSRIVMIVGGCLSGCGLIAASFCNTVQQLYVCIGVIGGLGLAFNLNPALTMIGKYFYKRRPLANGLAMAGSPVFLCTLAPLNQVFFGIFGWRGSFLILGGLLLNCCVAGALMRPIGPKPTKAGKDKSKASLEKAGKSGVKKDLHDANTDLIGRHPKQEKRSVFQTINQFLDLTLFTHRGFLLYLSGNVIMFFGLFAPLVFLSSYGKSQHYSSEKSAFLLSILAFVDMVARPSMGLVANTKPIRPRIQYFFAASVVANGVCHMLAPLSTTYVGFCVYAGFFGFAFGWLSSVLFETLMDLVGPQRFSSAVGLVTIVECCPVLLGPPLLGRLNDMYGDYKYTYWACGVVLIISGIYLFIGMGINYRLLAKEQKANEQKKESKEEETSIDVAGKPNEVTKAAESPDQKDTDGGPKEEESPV", "assay": "cell-based or functional assay"}, "[3]": {"biological_target": "T2, human monocarboxylate transporter 1 …", "assay": "cell-based or functional assay", "remark": "listed apart in the source"}, "[4]": {"biological_target": "T2, human monocarboxylate transporter 1 …", "assay": "cell-based or functional assay", "remark": "listed apart in the source"}, "Human C1q": {"biological_target": "T3, Human C1q (human, UniProt P02745 23-245; P02746 28-253; P02747 29-245)", "T3 construct": "Bought (MS Biomedical); also called complement component C1q", "T3 sequence (P02745 23-245 limits assumed, chain 1 of 3)": "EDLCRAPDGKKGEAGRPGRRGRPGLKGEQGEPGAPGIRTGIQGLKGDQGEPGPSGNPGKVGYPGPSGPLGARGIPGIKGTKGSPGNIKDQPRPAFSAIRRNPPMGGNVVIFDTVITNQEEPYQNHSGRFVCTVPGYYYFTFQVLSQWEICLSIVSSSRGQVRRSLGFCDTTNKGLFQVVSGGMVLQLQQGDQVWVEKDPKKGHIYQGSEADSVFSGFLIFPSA", "T3 sequence (P02746 28-253 limits assumed, chain 2 of 3)": "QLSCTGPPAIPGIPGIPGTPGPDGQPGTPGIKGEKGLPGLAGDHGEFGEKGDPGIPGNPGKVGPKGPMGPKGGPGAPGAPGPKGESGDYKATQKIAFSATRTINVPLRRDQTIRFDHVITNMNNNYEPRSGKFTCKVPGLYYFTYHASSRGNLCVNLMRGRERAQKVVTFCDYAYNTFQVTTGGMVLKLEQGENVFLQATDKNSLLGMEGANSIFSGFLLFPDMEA", "T3 sequence (P02747 29-245 limits assumed, chain 3 of 3)": "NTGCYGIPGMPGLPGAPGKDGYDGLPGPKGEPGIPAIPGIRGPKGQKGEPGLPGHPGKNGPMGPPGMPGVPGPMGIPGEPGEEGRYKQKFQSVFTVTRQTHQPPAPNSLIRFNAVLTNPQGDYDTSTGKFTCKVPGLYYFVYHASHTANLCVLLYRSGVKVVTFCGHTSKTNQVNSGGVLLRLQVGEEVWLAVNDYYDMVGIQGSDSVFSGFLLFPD", "assay": "ELISA, antibody coated on plate, human C1q detected with anti-human C1q-HRP (results not shown)"}, "[5]": {"biological_target": "T2, human monocarboxylate transporter 1 …", "assay": "competition MSD binding assay, antibody titrated with HEK WT cells expressing MCT1, apparent KD, screening at 25 C", "experimental": "The mix was incubated at 37° C. for 1-2 days. After incubation, the incubated samples were spun down for 5 min at 500×g to remove cells. A 96-well multi-array plate (Meso Scale Diagnostics, Cat. #L15XA-3) was coated at 4° C. overnight with 1 μg/mL of goat anti human FC in phosphate buffered saline (PBS). Following coating, plates were washed 3 times with 150 μL PBST (PBS with 0.05% Tween 20) and blocked with 150 μL/well of PBS 3% blocker A buffer (Cat #R93BA-1) at 25° C. for 1 hr. Plates were then washed 3 times with PBST. 50 μL of the preincubated antibody: cell dilution series was transferred to the wells and incubated at 25° C. with 700 rpm shaking for 1 hr. Plates were washed 3 times with PBST. Then 100 μL of 1 μg/mL anti-human kappa-biotin antibody (Cat. #2060-08) was added, and plates were incubated at 25° C. with 700 rpm shaking […]. Plates were washed 3 times with PBST, followed by addition of 100 μL of 1 μg/mL MSD Sulfo-tag streptavidin antibody (Meso Scale Diagnostics Cat. #R32 AD1), and plates were incubated at 25° C. with 700 rpm shaking for 1 hr. Plates were washed 3 times with PBST, 150 μL/well of 1× Read Buffer T was added to the wells and analyzed on a SECTOR® Imager 6000 (Meso Scale Diagnostics) 15 min after buffer addition. The apparent KD is determined by fitting a sigmoidal curve to the electrochemiluminescence (ECL) response vs. log (MCT1 receptor concentration) using assay development tool kit graphed with normalized ECL values."}, "[6]": {"biological_target": "T2, human monocarboxylate transporter 1 …", "assay": "competition MSD binding assay, antibody titrated with HEK WT cells expressing MCT1, apparent KD, 37 C, average of triplicate", "source_text": "Plates were then washed 3 times with PBST. […] Plates were washed 3 times with PBST."}}, "data": [{"binder": "B1", "values": [{"measurement": "binding result", "setting": "[1]", "result": "no binding (tested: 200 nM)"}]}, {"binder": "B2", "values": [{"measurement": "IC50 of inhibition of CD4 T cell proliferation", "setting": "[2]", "result": 3, "unit": "nM"}, {"measurement": "IC50 of inhibition of CD8 T cell proliferation", "setting": "[2]", "result": 3, "unit": "nM"}, {"measurement": "IC50 of inhibition of MCT1 mediated transport (bromopyruvate assay, HEK293T cells)", "setting": "[3]", "result": 25, "unit": "nM"}, {"measurement": "IC50 of inhibition of B cell proliferation, Average of 3 donors", "setting": "[4]", "result": 2.95, "unit": "nM"}, {"measurement": "IC50 of inhibition of B cell proliferation, Donor1", "setting": "[4]", "result": 3.06, "unit": "nM"}, {"measurement": "IC50 of inhibition of B cell proliferation, Donor3", "setting": "[4]", "result": 3.38, "unit": "nM"}, {"measurement": "binding result", "setting": "Human C1q", "result": "no binding"}, {"measurement": "Kd", "setting": "[5]", "result": 1.27, "unit": "nM"}, {"measurement": "Kd", "setting": "[6]", "result": 0.59, "unit": "nM"}]}]}
